Measurements reported in paper PMC2659767, “Tracking Membrane Protein Association in Model Membranes” (PLoS ONE, 2009).

T1: OprM trimer, unlabeled (Pseudomonas aeruginosa, UniProt Q51487 18-485, palmitoyl moiety (said of the protein in general))
T1 construct: OprM, outer membrane protein of the MexA-MexB-OprM efflux pump of Pseudomonas aeruginosa; also called outer membrane protein OprM; source: expressed and purified as previously described [50]; solubilized in 1% beta-octylglucoside, then inserted into the L3 sponge phase
T1 sequence: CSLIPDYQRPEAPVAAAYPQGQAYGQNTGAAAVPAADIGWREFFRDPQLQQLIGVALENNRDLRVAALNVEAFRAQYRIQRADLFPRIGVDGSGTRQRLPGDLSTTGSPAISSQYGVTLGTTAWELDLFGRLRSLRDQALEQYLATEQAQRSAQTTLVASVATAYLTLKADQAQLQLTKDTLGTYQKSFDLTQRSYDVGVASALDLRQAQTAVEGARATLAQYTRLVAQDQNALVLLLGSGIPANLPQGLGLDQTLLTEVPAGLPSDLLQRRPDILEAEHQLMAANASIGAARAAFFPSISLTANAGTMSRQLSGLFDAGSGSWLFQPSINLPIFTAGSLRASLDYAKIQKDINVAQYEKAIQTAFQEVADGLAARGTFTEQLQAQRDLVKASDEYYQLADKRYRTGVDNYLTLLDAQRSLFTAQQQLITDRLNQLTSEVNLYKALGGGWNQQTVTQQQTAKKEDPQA

B1: MexA, mature form bearing a palmitoyl moiety, FITC-labeled (natural protein)
chain: CGKSEAPPPAQTPEVGIVTLEAQTVTLNTELPGRTNAFRIAEVRPQVNGIILKRLFKEGSDVKAGQQLYQIDPATYEADYQSAQANLASTQEQAQRYKLLVADQAVSKQQYADANAAYLQSKAAVEQARINLRYTKVLSPISGRIGRSAVTEGALVTNGQANAMATVQQLDPIYVDVTQPSTALLRLRRELASGQLERAGDNAAKVSLKLEDGSQYPLEGRLEFSEVSVDEGTGSVTIRAVFPNPNNELLPGMFVHAQLQEGVKQKAILAPQQGVTRDLKGQATALVVNAQNKVELRVIKADRVIGDKWLVTEGLNAGDKIITEGLQFVQPGVEVKTVPAKNVASAQKADAAPAKTDSKG
modifications: palmitoyl moiety (on the unique N-terminal cysteine); FITC label
notes: MexA, periplasmic lipoprotein of the MexA-MexB-OprM efflux pump of Pseudomonas aeruginosa, in its mature form; Found monomeric in the sponge phase; also called FITC-labeled MexA; periplasmic protein MexA; source: solubilized in 1% beta-octylglucoside, then inserted into the L3 sponge phase
B2: OprM, FITC-labeled (natural protein)
chain: T1 sequence
modifications: FITC label; palmitoyl moiety (said of the protein in general)
notes: OprM, outer membrane protein of the MexA-MexB-OprM efflux pump of Pseudomonas aeruginosa; Same protein as m2, here labeled with FITC and measured alone; also called FITC-labeled OprM; OprM trimer; source: expressed and purified as previously described [50]; labeled with FITC; inserted into the L3 sponge phase

Columns and labels:
OprM trimer, unlabeled [1] = target: T1, OprM trimer, unlabeled; assay: FRAPP (fluorescence recovery after fringe pattern photobleaching); as a5 (dW about 200 A, stoichiometry from free MexA intensity) but at pH 5.5; settings: both partners purified
OprM trimer, unlabeled [2] = target: T1, OprM trimer, unlabeled; assay: FRAPP (fluorescence recovery after fringe pattern photobleaching); dW about 200 A, pH 7.5; OprM trimer constant at 1 uM, molar ratio r of FITC-labeled MexA to OprM trimer varied; stoichiometry from the intensity I0 of free MexA; settings: both partners purified
[3] = target: the molecule itself; assay: FRAPP (fluorescence recovery after fringe pattern photobleaching); FITC-labeled OprM alone in the sponge phase, dW>170 A; hydrodynamic radius from the diffusion coefficient compared with crystallographic and electron microscopy data

Binder | stoichiometry N (OprM trimer, unlabeled [1]) [MexA per OprM trimer] | stoichiometry N (OprM trimer, unlabeled [2]) [MexA per OprM trimer] | stoichiometry N [3]
B1 | 6 | 2 | 
B2 |  |  | 3
